How the values were obtained:
[1] = target: … HLA-A*01 complex (MAGE-3 peptide, soluble biotinylated pHLA); test: SPR (BIAcore) method of Example 3
[2] = target: … HLA-A*01 complex (MAGE-3 peptide, soluble biotinylated pHLA); test: SPR (BIAcore 3000); biotinylated pHLA on streptavidin chip, soluble TCR injected, 25 C

koff [1]: 0.2 s⁻¹
T½ (binding half-life) [2]: 3 s
B1: reference MAGE-3 TCR (disulfide linked soluble heterodimeric form) (TCR, V domains shown)
V domain 1: KQEVTQIPAALSVPEGENLVLNCSFTDSAIYNLQWFRQDPGKGLTSLLLIQSSQREQTSGRLNASLDKSSGRSTLYIAASQPGDSATYLCAVRPGGAGSYQLTFGKGTKLSVIP
V domain 2: KAGVTQTPRYLIKTRGQQVTLSCSPISGHRSVSWYQQTPGQGLQFLFEYFSETQRNKGNFPGRFSGRQFSNSRSEMNVSTLELGDSALYLCASSPNMADEQYFGPGTRLTVTE
